The text below walks through data of article PMC12772324.

The data set deals with T1, HutC (Pseudomonas aeruginosa PAO1) (UniProt Q9HU78).
T1 sequence: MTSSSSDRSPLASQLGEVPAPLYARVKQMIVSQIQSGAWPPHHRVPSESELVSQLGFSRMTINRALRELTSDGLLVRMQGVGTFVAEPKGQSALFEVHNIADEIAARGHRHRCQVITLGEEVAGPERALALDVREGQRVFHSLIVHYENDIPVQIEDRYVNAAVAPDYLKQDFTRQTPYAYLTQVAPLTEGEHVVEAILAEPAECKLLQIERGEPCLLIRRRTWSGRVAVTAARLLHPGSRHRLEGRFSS
As to the kind of experiment: EMSA. The following applies: 10 mM Tris-HCl pH 7.5, 100 mM NaCl, 1 mM DTT, 3 ng/uL sheared salmon sperm DNA, 1% glycerol, 2 ng/uL probe, 20 min at room temperature; 6% native gel, 0.5x TBE. On the technique in general: Mobility shift assays separate free from complexed probe on a gel.

For the sequence “ACGGCGGCCTGAGCCGCCGGCCAATAACAATGATCGAGGCCGTTCCCCCGGGCGCGGCCCGCAGGTTTTCCAACTGCCTTTCCCAATCGTGCATCTGGAGCGTCGAACC (double strand) [hutG -108 to -1]”, the binding result was “binds”.
